Paper PMC7305210, “Mitochondria-adaptor TRAK1 promotes kinesin-1 driven transport in crowded environments” (Nature Communications, 2020)

B1: KIF5B∆-GFP in complex with mCherry-TRAK1 (complex)
chain 1: MADLAECNIKVMCRFRPLNESEVNRGDKYIAKFQGEDTVVIASKPYAFDRVFQSSTSQEQVYNDCAKKIVKDVLEGYNGTIFAYGQTSSGKTHTMEGKLHDPEGMGIIPRIVQDIFNYIYSMDENLEFHIKVSYFEIYLDKIRDLLDVSKTNLSVHEDKNRVPYVKGCTERFVCSPDEVMDTIDEGKSNRHVAVTNMNEHSSRSHSIFLINVKQENTQTEQKLSGKLYLVDLAGSEKVSKTGAEGAVLDEAKNINKSLSALGNVISALAEGSTYVPYRDSKMTRILQDSLGGNCRTTIVICCSPSSYNESETKSTLLFGQRAKTIKNTVCVNVELTAEQWKKKYEKEKEKNKILRNTIQWLENELNRWRNGETVPIDEQFDKEKANLEAFTVDKDITLTNDKPATAIGVIGNFTDAERRKCEEEIAKLYKQLDDKDEEINQQSQLVEKLKTQMLDQEELLASTRRDQDNMQAELNRLQAENDASKEEVKEVLQALEELAVNYDQKSQEVEDKTKEYELLSDELNQKSATLASIDAELQKLKEMTNHQKKRAAEMMASLLKDLAEIGIAVGNNDVKQPEGTGMIDEEFTVARLYISKMKSEVKTMVKRCKQLESTQTESNKKMEENEKELAACQLRISQHEAKIKSLTEYLQNVEQKKRQLEESVDALSEELVQLRAQEKVHEMEKEHLNKVQTANEVKQAVEQQIQSHRETHQKQISSLRDEVEAKAKLITDLQDQNQKMMLEQERLRVEHEKLKATDQEKSRKLHELTVMQDRREQARQDLKGLEETVAKELQTLHNLRKLFVQDLATRVKKSAEIDSDDTGGSAAQKQKISFLENNLEQLTKVHKQLVRDNADLRCELPKLEKRLRATAERVKALESALKEAKENASRDRKRYQQEVDRIKEA
chain 2: MALVFQFGQPVRAQPLPGLCHGKLIRTNACDVCNSTDLPEVEIISLLEEQLPHYKLRADTIYGYDHDDWLHTPLISPDANIDLTTEQIEETLKYFLLCAERVGQMTKTYNDIDAVTRLLEEKERDLELAARIGQSLLKKNKTLTERNELLEEQVEHIREEVSQLRHELSMKDELLQFYTSAAEESEPESVCSTPLKRNESSSSVQNYFHLDSLQKKLKDLEEENVVLRSEASQLKTETITYEEKEQQLVNDCVKELRDANVQIASISEELAKKTEDAARQQEEITHLLSQIVDLQKKAKACAVENEELVQHLGAAKDAQRQLTAELRELEDKYAECMEMLHEAQEELKNLRNKTMPNTTSRRYHSLGLFPMDSLAAEIEGTMRKELQLEEAESPDITHQKRVFETVRNINQVVKQRSLTPSPMNIPGSNQSSAMNSLLSSCVSTPRSSFYGSDIGNVVLDNKTNSIILETEAADLGNDERSKKPGTPGTPGSHDLETALRRLSLRRENYLSERRFFEEEQERKLQELAEKGELRSGSLTPTESIMSLGTHSRFSEFTGFSGMSFSSRSYLPEKLQIVKPLEGSATLHHWQQLAQPHLGGILDPRPGVVTKGFRTLDVDLDEVYCLNDFEEDDTGDHISLPRLATSTPVQHPETSAHHPGKCMSQTNSTFTFTTCRILHPSDELTRVTPSLNSAPTPACGSTSHLKSTPVATPCTPRRLSLAESFTNTRESTTTMSTSLGLVWLLKERGISAAVYDPQSWDRAGRGSLLHSYTPKMAVIPSTPPNSPMQTPTSSPPSFEFKCTSPPYDNFLASKPASSILREVREKNVRSSESQTDVSVSNLNLVDKVRRFGVAKVVNSGRAHVPTLTEEQGPLLCGPPGPAPALVPRGLVPEGLPLRCPTVTSAIGGLQLNSGIRRNRSFPTMVGSSMQMKAPVTLTSGILMGAKLSKQTSLR
notes: KIF5B, kinesin-1 heavy chain, human, amino acids 1-905; as m2; TRAK1, cDNA KIAA1042; as m5; also called KIF5B∆-GFP-mCherry-TRAK1 complex; KIF5B∆-TRAK1 transport complex; source: the two purified proteins (m2 from SF9, m5 from HEK293T) pre-incubated 10 min on ice; not shown: GFP, C-terminal, kept; 6xHis, C-terminal, cleaved; mCherry, N-terminal, kept; TwinStrep-FLAG-Halo, N-terminal, cleaved; …
B2: KIF5B-GFP-mCherry-TRAK1∆ complex (complex)
chain 1: MADLAECNIKVMCRFRPLNESEVNRGDKYIAKFQGEDTVVIASKPYAFDRVFQSSTSQEQVYNDCAKKIVKDVLEGYNGTIFAYGQTSSGKTHTMEGKLHDPEGMGIIPRIVQDIFNYIYSMDENLEFHIKVSYFEIYLDKIRDLLDVSKTNLSVHEDKNRVPYVKGCTERFVCSPDEVMDTIDEGKSNRHVAVTNMNEHSSRSHSIFLINVKQENTQTEQKLSGKLYLVDLAGSEKVSKTGAEGAVLDEAKNINKSLSALGNVISALAEGSTYVPYRDSKMTRILQDSLGGNCRTTIVICCSPSSYNESETKSTLLFGQRAKTIKNTVCVNVELTAEQWKKKYEKEKEKNKILRNTIQWLENELNRWRNGETVPIDEQFDKEKANLEAFTVDKDITLTNDKPATAIGVIGNFTDAERRKCEEEIAKLYKQLDDKDEEINQQSQLVEKLKTQMLDQEELLASTRRDQDNMQAELNRLQAENDASKEEVKEVLQALEELAVNYDQKSQEVEDKTKEYELLSDELNQKSATLASIDAELQKLKEMTNHQKKRAAEMMASLLKDLAEIGIAVGNNDVKQPEGTGMIDEEFTVARLYISKMKSEVKTMVKRCKQLESTQTESNKKMEENEKELAACQLRISQHEAKIKSLTEYLQNVEQKKRQLEESVDALSEELVQLRAQEKVHEMEKEHLNKVQTANEVKQAVEQQIQSHRETHQKQISSLRDEVEAKAKLITDLQDQNQKMMLEQERLRVEHEKLKATDQEKSRKLHELTVMQDRREQARQDLKGLEETVAKELQTLHNLRKLFVQDLATRVKKSAEIDSDDTGGSAAQKQKISFLENNLEQLTKVHKQLVRDNADLRCELPKLEKRLRATAERVKALESALKEAKENASRDRKRYQQEVDRIKEAVRSKNMARRGHSAQIAKPIRPGQHPAASPTHPSAIRGGGAFVQNSQPVAVRGGGGKQV
chain 2: MALVFQFGQPVRAQPLPGLCHGKLIRTNACDVCNSTDLPEVEIISLLEEQLPHYKLRADTIYGYDHDDWLHTPLISPDANIDLTTEQIEETLKYFLLCAERVGQMTKTYNDIDAVTRLLEEKERDLELAARIGQSLLKKNKTLTERNELLEEQVEHIREEVSQLRHELSMKDELLQFYTSAAEESEPESVCSTPLKRNESSSSVQNYFHLDSLQKKLKDLEEENVVLRSEASQLKTETITYEEKEQQLVNDCVKELRDANVQIASISEELAKKTEDAARQQEEITHLLSQIVDLQKKAKACAVENEELVQHLGAAKDAQRQLTAELRELEDKYAECMEMLHEAQEELKNLRNKTMPNTTSRRYHSLGLFPMDSLAAEIEGTMRKELQLEEAESPDITHQKRVFETVRNINQVVKQRSLTPSPMNIPGSNQSSAMNSLLSSCVSTPRSSFYGSDIGNVVLDNKTNSIILETEAADLGNDERSKKPGTPGTPGSHDLETALRRLSLRRENYLSERRFFEEEQERKLQELAEKGELRSGSLTPTESIMSLGTHSRFSEFTGFSGMSFSSRSYLPEKLQIVKPLEGSATLHHWQQLAQPHLGGILDPRPGVVTKGFRTLDVDLDEVYCLNDFEEDDTGD
notes: KIF5B, kinesin-1 heavy chain, human, amino acids 1-963; as m1; TRAK1, stop codon after amino acid 635; as m6; also called truncated KIF5B-GFP-mCherry-TRAK1∆ complex; source: the two purified proteins (m1 from SF9, m6 from HEK293T) pre-incubated 10 min on ice; not shown: GFP, C-terminal, kept; 6xHis, C-terminal, cleaved; mCherry, N-terminal, kept; TwinStrep-FLAG-Halo, N-terminal, cleaved
B3: KIF5B∆-GFP in complex with mCherry-TRAK1∆ (complex)
chain 1: B1 chain 1
chain 2: B2 chain 2
notes: KIF5B, kinesin-1 heavy chain, human, amino acids 1-905; as m2; TRAK1, stop codon after amino acid 635; as m6; source: the two purified proteins (m2 from SF9, m6 from HEK293T) pre-incubated 10 min on ice; not shown: GFP, C-terminal, kept; 6xHis, C-terminal, cleaved; mCherry, N-terminal, kept; TwinStrep-FLAG-Halo, N-terminal, cleaved
B4: KIF5B-GFP-mCherry-TRAK1 complex (complex)
chain 1: B2 chain 1
chain 2: B1 chain 2
notes: KIF5B, kinesin-1 heavy chain, human, amino acids 1-963; as m1; TRAK1, cDNA KIAA1042; as m5; Only traces of mCherry-TRAK1 were analysed, so that the moving particles are complexes; also called KIF5B-TRAK1 transport complex; source: the two purified proteins (m1 from SF9, m5 from HEK293T) pre-incubated 10 min on ice; not shown: GFP, C-terminal, kept; 6xHis, C-terminal, cleaved; mCherry, N-terminal, …

molecular target: microtubules polymerized from porcine tubulin (porcine, UniProt P02550 1-451; Q767L7 1-444, Alexa Fluor 647 NHS ester on 20% of the tubulin in fluorescently labeled microtubules | Alexa Fluor 647 NHS ester on 20% of the tubulin in fluorescently labeled microtubules); assay: single-molecule TIRF microscopy, two-colour co-movement on immobilised microtubules; KIF5B construct and 175 nM TRAK1 construct pre-incubated 10 min on ice, flushed onto bare immobilised microtubules in motility buffer with 1 mM Mg-ATP; room temperature; for the complexes traces of the mCherry-TRAK1 channel analysed; details: both partners purified

Row | Binder | median interaction time with microtubules
1 | B1 | 12.2 s
2 | B2 | 5.33 s
3 | B3 | 2.22 s
4 | B4 | 19.3 s
